Measured values as given in US20230116587A1.

Target: RBD of the recombinantly expressed S protein (novel coronavirus SARS-CoV-2) (UniProt P0DTC2)
Assay: ELISA, RBD coated at 0.01 µg/ml, antibody 0.1 µg/ml, HRP anti-human IgG Fc

irrelevant control antibody
OD450 reading: 0.006 OD450
